# Measurements as given in the supplement of paper PMC10567573.
# ± gives the standard deviation.
# Assay: protein stability index of a GFP-peptide fusion (GPS, HEK-293T) (PSI 1-6); higher = more stable
# [1] = treatment: DMSO, c terminus: a fixed tail appended
# [2] = treatment: MLN4924 1 uM, 8 h, c terminus: a fixed tail appended
# 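Further: 24-mer peptide tiles fused after GFP, lentivirally expressed, FACS-sorted into six equal bins by GFP/DsRed ratio, decoded by Illumina sequencing, PSI is the read-weighted mean bin number.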
Sequence,protein stability index [1],protein stability index [2],"protein stability index (treatment: DMSO, c terminus: native)","protein stability index (treatment: MLN4924 1 uM, 8 h, c terminus: native)"
LDKMLDPQVWREAATQVFFALGLG [SLC6A17],2.52 ± 0.68,2.25 ± 0.28,–,–
LDPDSKENAQIIYSLAEDTIQGVP [PCDHGA10],4.64 ± 0.15,4.56 ± 0.23,–,–
LEAEIATYRRLLEDGEDFNLGDAL [KRT18],4.41 ± 0.15,4.53 ± 0.25,–,–
LEAGADQEHKTDEMHTALMEACMD [ANKRD17],5.52 ± 0.37,5.34 ± 0.28,–,–
LEANADTSVEEESFGPQPISRLEQ [RAD51],5.38 ± 0.2,5.44 ± 0.18,–,–
LEIELQSQLSMKASLENSLEETKG [KRT16],5.28 ± 0.066,5.16 ± 0.17,–,–
LELHDYHDIIKHPMDLSTVKRKMD [BRD3],4.05 ± 0.19,3.98 ± 0.34,–,–
LFLGQGIQVSLYCQEWYARRHCPL [SOAT2],2.83 ± 0.46,2.57 ± 0.46,–,–
LFVLELEWVLSTGQDKQFAWHCSE [WDFY2],2.99 ± 0.34,2.77 ± 0.72,–,–
LFVTFLLIYMVTIMGNLLIIVTIM [OR4A15],3.06 ± 0.41,3.29 ± 0.53,–,–
LGDRLNVEVDAAPAVDLNQVLNET [KRT33B],4.93 ± 0.14,4.96 ± 0.097,–,–
LGIPKSTTSDIPHMLNQVESKVKD [FAM98B],5.04 ± 0.27,5.23 ± 0.11,–,–
LGLVGYYIFRVANHQKDLFRRTDG [DHCR7],2.45 ± 0.2,2.6 ± 0.31,–,–
LGLYINFRHLYKQRRRRYGQKKKK [HACD3],2.37 ± 0.22,2.61 ± 0.34,–,–
LGMYQKVTSYCRSATLVGFTVGSV [SLC19A2],2.74 ± 0.6,2.73 ± 0.41,–,–
LGNGNDKKEMNKSDLNTNNLLFKP [KMT2E],4.65 ± 0.25,4.34 ± 0.32,–,–
LGPSLEDLFDLCDRTFTLKTVLMI [CSNK1G1],2.69 ± 0.82,2.56 ± 0.9,–,–
LGVDTAETSYLEMAAGSEPESVEA [KMT2E],5.27 ± 0.32,5.5 ± 0.42,–,–
LHCWLNAFAEMLRFGDRMFYKDWW [SOAT1],2.97 ± 0.3,2.77 ± 0.6,–,–
LHDIFENKTDVVLILELVSGGELF [DAPK3],1.87 ± 0.37,2.39 ± 0.58,–,–
LHEALLEYEAGRAGPGGGAERRRA [ESRRA],4.27 ± 0.34,4.82 ± 0.18,–,–
LHYAAASDMDRNKTILGNAHDNSE [ANKRD44],4.76 ± 0.15,4.9 ± 0.044,–,–

Sequence,protein stability index [1],protein stability index [2],"protein stability index (treatment: DMSO, c terminus: native)","protein stability index (treatment: MLN4924 1 uM, 8 h, c terminus: native)"
LIQNEYRNGGSLADAISENYRIMS [WEE1],2.38 ± 0.31,2.5 ± 0.48,–,–
LIRYICGVVHPSNEVLSSDILPRW [INTS3],2.66 ± 0.26,2.56 ± 0.49,–,–
LISHVLEQNQEGDAAYRKALDLAR [AUH],3.38 ± 0.55,3.09 ± 0.19,–,–
LISKLPYIHFFHTVLKQIAPEYFE [DENND6A],2.64 ± 0.28,2.37 ± 0.63,–,–
LIVVTQSHLVIHNLFEGMIWFIVP [CDS2],3.06 ± 0.41,3.25 ± 0.59,–,–
LKFHKLVNVTIHFRLKTINLQSLI [MCOLN1],3.17 ± 0.37,3.12 ± 0.31,–,–
LKNKCCPPPCKFGEGKLSKRLKHK [C22orf31],3.49 ± 0.21,3.74 ± 0.48,–,–
LKPLLSPSSETTVTVELPEADRAG [LYSMD4],5.04 ± 0.23,5.07 ± 0.28,–,–
LKSAKDLPPDALIIEYRGKFMLRE [KMT2E],2.15 ± 0.4,2.38 ± 0.43,–,–
LKVGGILVMPLEEKLTKITRTGPS [PCMTD2],2.4 ± 0.21,2.16 ± 0.41,–,–
LKVRYRERITILRGNHESRQITQV [PPP2CA],2.37 ± 0.19,2.42 ± 0.32,–,–
LLDKLAKENQDIRLLQAQLQAQKE [PBXIP1],4.37 ± 0.33,4.21 ± 0.27,–,–
LLEEGGLVQVESVNLQVATYSKFQ [UFD1],2.85 ± 0.32,2.9 ± 0.31,–,–
LLEERRPADSAQLLSLNSLLPESG [TFE3],4.37 ± 0.42,4.54 ± 0.24,–,–
LLKCVRESDPSDPNKDMVVQLIDD [SRPK2],4.6 ± 0.41,4.57 ± 0.079,–,–
LLMTSGVVLCEGVKWLSFHSGYDF [CNOT7],3.33 ± 0.37,2.9 ± 0.39,–,–
LLRHGMDRLWRPSKVLSLQDLCCR [RAB40B],3.03 ± 0.09,2.97 ± 0.25,–,–
LLRMCSHGEGKINYYNFVRAFSN [EFHC1],–,–,2.32 ± 0.66,2.08 ± 0.57
LMPGVPPLMPGMPPVMPGMPPGLH [ZNF207],3.02 ± 0.33,2.99 ± 0.32,–,–
LMTCEMLNRRNGSLRIALSEHLKQ [EDNRA],2.71 ± 0.17,2.72 ± 0.26,–,–
LNIVERYDPKENKWTRVASMSTRR [KLHL20],3.31 ± 0.084,3.39 ± 0.23,–,–
LPHLVALTEQYTVTGLMEATQMMV [RHOBTB2],2.89 ± 0.67,2.86 ± 0.52,–,–
